The results in this text go back to article PMC4297941 (Redox Biology, 2014).

Series [1] has as its target T1, wild type human endothelial nitric oxide synthase (eNOS), histidine tagged, recombinant (human), P29474.
T1 chain: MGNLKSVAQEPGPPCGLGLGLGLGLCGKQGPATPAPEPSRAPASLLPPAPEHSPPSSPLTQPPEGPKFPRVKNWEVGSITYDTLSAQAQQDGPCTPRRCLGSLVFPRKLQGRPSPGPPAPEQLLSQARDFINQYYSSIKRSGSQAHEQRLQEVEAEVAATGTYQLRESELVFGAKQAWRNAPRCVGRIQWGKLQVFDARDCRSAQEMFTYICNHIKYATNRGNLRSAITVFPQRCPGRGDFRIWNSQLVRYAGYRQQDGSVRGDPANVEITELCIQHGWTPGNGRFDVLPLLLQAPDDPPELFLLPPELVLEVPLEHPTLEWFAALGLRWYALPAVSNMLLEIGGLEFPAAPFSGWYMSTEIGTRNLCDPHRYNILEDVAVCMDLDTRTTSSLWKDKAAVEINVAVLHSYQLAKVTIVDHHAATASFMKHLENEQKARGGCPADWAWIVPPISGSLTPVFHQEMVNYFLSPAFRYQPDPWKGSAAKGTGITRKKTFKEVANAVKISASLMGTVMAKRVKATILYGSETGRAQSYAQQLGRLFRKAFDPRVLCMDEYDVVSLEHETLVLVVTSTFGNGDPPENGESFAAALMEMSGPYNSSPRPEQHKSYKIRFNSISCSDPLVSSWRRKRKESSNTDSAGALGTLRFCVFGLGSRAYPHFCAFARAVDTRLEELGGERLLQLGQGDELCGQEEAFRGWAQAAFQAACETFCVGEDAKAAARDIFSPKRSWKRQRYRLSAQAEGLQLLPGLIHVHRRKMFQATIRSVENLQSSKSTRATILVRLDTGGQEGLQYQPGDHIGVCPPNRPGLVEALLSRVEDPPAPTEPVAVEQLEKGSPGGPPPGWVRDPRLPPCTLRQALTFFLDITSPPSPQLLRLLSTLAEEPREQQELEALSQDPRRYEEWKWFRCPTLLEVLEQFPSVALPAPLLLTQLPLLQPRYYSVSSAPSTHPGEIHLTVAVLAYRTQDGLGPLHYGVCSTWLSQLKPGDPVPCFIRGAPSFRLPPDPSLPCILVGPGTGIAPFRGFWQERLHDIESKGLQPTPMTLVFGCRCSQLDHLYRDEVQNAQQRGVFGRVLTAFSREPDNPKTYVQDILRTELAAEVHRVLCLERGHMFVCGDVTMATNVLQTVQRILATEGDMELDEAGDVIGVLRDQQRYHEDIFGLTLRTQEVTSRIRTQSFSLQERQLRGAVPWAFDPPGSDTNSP
Put plainly: SEC. Particulars: remark: other sources report otherwise.

The series “SEC” concerns the molecule itself. Put plainly: SEC. A general note: In gel filtration, larger molecules generally elute earlier.

B1: wild type human endothelial nitric oxide synthase (eNOS), histidine tagged, recombinant, P29474 1-1203 (enzyme)
chain: MGNLKSVAQEPGPPCGLGLGLGLGLCGKQGPATPAPEPSRAPASLLPPAPEHSPPSSPLTQPPEGPKFPRVKNWEVGSITYDTLSAQAQQDGPCTPRRCLGSLVFPRKLQGRPSPGPPAPEQLLSQARDFINQYYSSIKRSGSQAHEQRLQEVEAEVAATGTYQLRESELVFGAKQAWRNAPRCVGRIQWGKLQVFDARDCRSAQEMFTYICNHIKYATNRGNLRSAITVFPQRCPGRGDFRIWNSQLVRYAGYRQQDGSVRGDPANVEITELCIQHGWTPGNGRFDVLPLLLQAPDDPPELFLLPPELVLEVPLEHPTLEWFAALGLRWYALPAVSNMLLEIGGLEFPAAPFSGWYMSTEIGTRNLCDPHRYNILEDVAVCMDLDTRTTSSLWKDKAAVEINVAVLHSYQLAKVTIVDHHAATASFMKHLENEQKARGGCPADWAWIVPPISGSLTPVFHQEMVNYFLSPAFRYQPDPWKGSAAKGTGITRKKTFKEVANAVKISASLMGTVMAKRVKATILYGSETGRAQSYAQQLGRLFRKAFDPRVLCMDEYDVVSLEHETLVLVVTSTFGNGDPPENGESFAAALMEMSGPYNSSPRPEQHKSYKIRFNSISCSDPLVSSWRRKRKESSNTDSAGALGTLRFCVFGLGSRAYPHFCAFARAVDTRLEELGGERLLQLGQGDELCGQEEAFRGWAQAAFQAACETFCVGEDAKAAARDIFSPKRSWKRQRYRLSAQAEGLQLLPGLIHVHRRKMFQATIRSVENLQSSKSTRATILVRLDTGGQEGLQYQPGDHIGVCPPNRPGLVEALLSRVEDPPAPTEPVAVEQLEKGSPGGPPPGWVRDPRLPPCTLRQALTFFLDITSPPSPQLLRLLSTLAEEPREQQELEALSQDPRRYEEWKWFRCPTLLEVLEQFPSVALPAPLLLTQLPLLQPRYYSVSSAPSTHPGEIHLTVAVLAYRTQDGLGPLHYGVCSTWLSQLKPGDPVPCFIRGAPSFRLPPDPSLPCILVGPGTGIAPFRGFWQERLHDIESKGLQPTPMTLVFGCRCSQLDHLYRDEVQNAQQRGVFGRVLTAFSREPDNPKTYVQDILRTELAAEVHRVLCLERGHMFVCGDVTMATNVLQTVQRILATEGDMELDEAGDVIGVLRDQQRYHEDIFGLTLRTQEVTSRIRTQSFSLQERQLRGAVPWAFDPPGSDTNSP
As usually defined, the stoichiometry N is the number of molecules, sites or subunits per partner or assembly. For B1, in series [1], the stoichiometry N came out at 2.

B2: C94R/C99R eNOS mutant, histidine tagged, recombinant (enzyme, human, UniProt P29474 1-1203, looked up)
chain: MGNLKSVAQEPGPPCGLGLGLGLGLCGKQGPATPAPEPSRAPASLLPPAPEHSPPSSPLTQPPEGPKFPRVKNWEVGSITYDTLSAQAQQDGPRTPRRRLGSLVFPRKLQGRPSPGPPAPEQLLSQARDFINQYYSSIKRSGSQAHEQRLQEVEAEVAATGTYQLRESELVFGAKQAWRNAPRCVGRIQWGKLQVFDARDCRSAQEMFTYICNHIKYATNRGNLRSAITVFPQRCPGRGDFRIWNSQLVRYAGYRQQDGSVRGDPANVEITELCIQHGWTPGNGRFDVLPLLLQAPDDPPELFLLPPELVLEVPLEHPTLEWFAALGLRWYALPAVSNMLLEIGGLEFPAAPFSGWYMSTEIGTRNLCDPHRYNILEDVAVCMDLDTRTTSSLWKDKAAVEINVAVLHSYQLAKVTIVDHHAATASFMKHLENEQKARGGCPADWAWIVPPISGSLTPVFHQEMVNYFLSPAFRYQPDPWKGSAAKGTGITRKKTFKEVANAVKISASLMGTVMAKRVKATILYGSETGRAQSYAQQLGRLFRKAFDPRVLCMDEYDVVSLEHETLVLVVTSTFGNGDPPENGESFAAALMEMSGPYNSSPRPEQHKSYKIRFNSISCSDPLVSSWRRKRKESSNTDSAGALGTLRFCVFGLGSRAYPHFCAFARAVDTRLEELGGERLLQLGQGDELCGQEEAFRGWAQAAFQAACETFCVGEDAKAAARDIFSPKRSWKRQRYRLSAQAEGLQLLPGLIHVHRRKMFQATIRSVENLQSSKSTRATILVRLDTGGQEGLQYQPGDHIGVCPPNRPGLVEALLSRVEDPPAPTEPVAVEQLEKGSPGGPPPGWVRDPRLPPCTLRQALTFFLDITSPPSPQLLRLLSTLAEEPREQQELEALSQDPRRYEEWKWFRCPTLLEVLEQFPSVALPAPLLLTQLPLLQPRYYSVSSAPSTHPGEIHLTVAVLAYRTQDGLGPLHYGVCSTWLSQLKPGDPVPCFIRGAPSFRLPPDPSLPCILVGPGTGIAPFRGFWQERLHDIESKGLQPTPMTLVFGCRCSQLDHLYRDEVQNAQQRGVFGRVLTAFSREPDNPKTYVQDILRTELAAEVHRVLCLERGHMFVCGDVTMATNVLQTVQRILATEGDMELDEAGDVIGVLRDQQRYHEDIFGLTLRTQEVTSRIRTQSFSLQERQLRGAVPWAFDPPGSDTNSP
For B2, in “SEC”, the “stoichiometry N” value is 2.
